From publication PMC4285296, “A complex gene locus enables xyloglucan utilization in the model saprophyte Cellvibrio japonicus” (Molecular Microbiology, 2014)
Each block holds one molecule with its values, some of them ahead of it.

Legend:
[1] = target: T1, CjAfc95A (Cellvibrio japonicus, UniProt B3PBE3); assay: HPAEC-PAD, fucose release; format: biochemical; details: 25 °C; pH optimum 6.5; apparent value, substrate preparation was a two-component mixture of XLFG and XXFG
T1 construct: gene afc95A; full-length (no signal peptide predicted); pET-DEST42 construct with C-terminal tag; recombinant in E. coli BL21(DE3), IMAC purified
T1 sequence (B3PBE3 1-782): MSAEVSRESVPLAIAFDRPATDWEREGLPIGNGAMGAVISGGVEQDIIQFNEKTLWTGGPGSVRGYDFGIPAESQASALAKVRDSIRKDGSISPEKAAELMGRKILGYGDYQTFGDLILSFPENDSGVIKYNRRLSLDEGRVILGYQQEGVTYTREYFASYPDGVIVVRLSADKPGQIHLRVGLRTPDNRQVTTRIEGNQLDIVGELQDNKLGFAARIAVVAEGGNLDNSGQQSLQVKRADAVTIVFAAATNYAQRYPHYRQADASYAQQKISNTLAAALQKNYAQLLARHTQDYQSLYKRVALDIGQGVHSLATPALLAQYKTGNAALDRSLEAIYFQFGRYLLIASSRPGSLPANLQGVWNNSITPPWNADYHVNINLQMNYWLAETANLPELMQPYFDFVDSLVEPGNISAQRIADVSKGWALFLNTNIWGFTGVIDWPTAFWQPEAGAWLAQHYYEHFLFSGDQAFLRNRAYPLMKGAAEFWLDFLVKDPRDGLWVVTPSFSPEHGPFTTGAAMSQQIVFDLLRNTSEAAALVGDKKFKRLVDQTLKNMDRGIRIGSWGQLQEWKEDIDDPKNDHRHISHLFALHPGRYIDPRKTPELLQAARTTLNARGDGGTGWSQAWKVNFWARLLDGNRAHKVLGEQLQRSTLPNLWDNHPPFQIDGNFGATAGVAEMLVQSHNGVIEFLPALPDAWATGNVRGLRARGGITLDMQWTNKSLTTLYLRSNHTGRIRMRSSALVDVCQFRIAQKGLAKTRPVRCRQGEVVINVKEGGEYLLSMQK
Description: HPAEC-PAD, fucose release on CjAfc95A

[2] = target: T2, CjBgl35A (Cellvibrio japonicus, UniProt B3PBE0); assay: isothermal titration calorimetry; format: binding
T2 construct: gene bgl35A; native signal peptide (residues 1-36) excluded; recombinant in E. coli; pET-DEST42 construct with C-terminal tag, or modified pET28a construct with N-terminal His6 tag (crystals); model residues 37-575

[3] = substrate: C[C@@H]1O[C@@H](Oc2ccc([N+](=O)[O-])cc2Cl)[C@@H](O)[C@H](O)[C@@H]1O; assay: continuous chromogenic assay, 2-chloro-4-nitrophenolate release; format: biochemical, Cellvibrio japonicus; details: 25 °C, pH optimum 6.5 (citrate)
Description: continuous chromogenic assay, 2-chloro-4-nitrophenolate release on CjAfc95A

[4] = substrate: O=[N+]([O-])c1ccc(O[C@@H]2O[C@H](CO)[C@H](O)[C@H](O)[C@H]2O)cc1; assay: purified protein; details: 25 °C, pH optimum 5.5 (acetate)

Km [1]: 210 ± 17 µM
Molecule: C[C@@H]1O[C@@H](O[C@H]2[C@H](O[C@H]3[C@@H](OC[C@H]4O[C@@H](O[C@H]5[C@H](O)[C@@H](O)C(O)O[C@@H]5CO)[C@H](O)[C@@H](O)[C@@H]4O[C@@H]4O[C@H](CO[C@H]5OC[C@@H](O)[C@H](O)[C@H]5O[C@@H]5O[C@H](CO)[C@H](O)[C@H](O)[C@H]5O)[C@@H](O[C@@H]5O[C@H](CO[C@H]6OC[C@@H](O)[C@H](O)[C@H]6O)[C@@H](O)[C@H](O)[C@H]5O)[C@H](O)[C@H]4O)OC[C@@H](O)[C@@H]3O)O[C@H](CO)[C@H](O)[C@@H]2O)[C@@H](O)[C@H](O)[C@@H]1O (some centres unmarked) [XLFG]

Kd [2]: 485 ± 42 nM
Molecule: OC[C@H]1NC[C@H](O)[C@@H](O)[C@H]1O [1-deoxygalactonojirimycin, 1,5-Dideoxy-1,5-imino-D-galactitol]

B1: CjAfc95A (Cellvibrio japonicus Ueda107) (protein)
chain: MSAEVSRESVPLAIAFDRPATDWEREGLPIGNGAMGAVISGGVEQDIIQFNEKTLWTGGPGSVRGYDFGIPAESQASALAKVRDSIRKDGSISPEKAAELMGRKILGYGDYQTFGDLILSFPENDSGVIKYNRRLSLDEGRVILGYQQEGVTYTREYFASYPDGVIVVRLSADKPGQIHLRVGLRTPDNRQVTTRIEGNQLDIVGELQDNKLGFAARIAVVAEGGNLDNSGQQSLQVKRADAVTIVFAAATNYAQRYPHYRQADASYAQQKISNTLAAALQKNYAQLLARHTQDYQSLYKRVALDIGQGVHSLATPALLAQYKTGNAALDRSLEAIYFQFGRYLLIASSRPGSLPANLQGVWNNSITPPWNADYHVNINLQMNYWLAETANLPELMQPYFDFVDSLVEPGNISAQRIADVSKGWALFLNTNIWGFTGVIDWPTAFWQPEAGAWLAQHYYEHFLFSGDQAFLRNRAYPLMKGAAEFWLDFLVKDPRDGLWVVTPSFSPEHGPFTTGAAMSQQIVFDLLRNTSEAAALVGDKKFKRLVDQTLKNMDRGIRIGSWGQLQEWKEDIDDPKNDHRHISHLFALHPGRYIDPRKTPELLQAARTTLNARGDGGTGWSQAWKVNFWARLLDGNRAHKVLGEQLQRSTLPNLWDNHPPFQIDGNFGATAGVAEMLVQSHNGVIEFLPALPDAWATGNVRGLRARGGITLDMQWTNKSLTTLYLRSNHTGRIRMRSSALVDVCQFRIAQKGLAKTRPVRCRQGEVVINVKEGGEYLLSMQK
notes: full-length (no signal peptide predicted); pET-DEST42 construct with C-terminal tag; recombinant in E. coli BL21(DE3), IMAC purified
Km [3]: 2100 ± 200 µM
kcat [3]: 26.5 ± 1.1 s⁻¹
kcat/Km [3]: 12900 M⁻¹ s⁻¹

B2: CjBgl35A (Cellvibrio japonicus Ueda107) (protein)
chain: APLPELLSNNGKHALMVDGAPYIILGSQTNNSSNYPDALKDVWPSMEKMGANTLSIPVAWEQIEPVEGQFDFSFVDVLLKEARQRKVRLVLLWFATWKNNAPHYAPAWVKLDNARFPRVVKEDGDTLNSLSPLGQNTLAADKKAFVELMKYLAKRDKDHTVIMVQVQNEVGTYGAVRDYSPMAQAVFNAAVPDDLIQKLQLKPGTWSQVFGRDADEFFHAYQIARYCDEVTVAGKAIKNLPMYVNVALRNPFNPGLPGQYSSGGGTDNVLHIWKAAAPNIDLIAPDIYFRDYKTVSKVLELYTRPDNALFVAEIGNDQPFARYLFPTLGKGGIGFSPFGMDDTDYTNYPLGAKVYNDETIEQFAQVYRLVNPMMREWARLSYQGQVWGVAEPLDSTTETQKIWNAEATPEEKEQHKKDRASALTQQLDLGLWDAEVTYGRPMFWVTPPEGNTPAAGGALIAQLDDNEYLVTAYKARVEFKPSQELAGKKFMIERVEEGRFEKGKWVMERVWNGDQTDWGLNFTDRPHLLRVKMASYSVQ
Km [4]: 810 ± 50 µM
kcat [4]: 10.1 s⁻¹
kcat/Km [4]: 12500 M⁻¹ s⁻¹
